Target: T1, EGFP-K14 WT (human keratin 14) (human, UniProt P02533 1-472)
T1 construct: keratin 14 (K14), human; codon-optimized KRT14 cDNA synthesized by Twist Biosciences; Co-expressed with untagged human K5, its type II copolymerization partner; also called WT K14; source: HeLa, transfected (nucleofection) together with untagged K5, in lysate (detergent-soluble pool)
T1 sequence (looked up): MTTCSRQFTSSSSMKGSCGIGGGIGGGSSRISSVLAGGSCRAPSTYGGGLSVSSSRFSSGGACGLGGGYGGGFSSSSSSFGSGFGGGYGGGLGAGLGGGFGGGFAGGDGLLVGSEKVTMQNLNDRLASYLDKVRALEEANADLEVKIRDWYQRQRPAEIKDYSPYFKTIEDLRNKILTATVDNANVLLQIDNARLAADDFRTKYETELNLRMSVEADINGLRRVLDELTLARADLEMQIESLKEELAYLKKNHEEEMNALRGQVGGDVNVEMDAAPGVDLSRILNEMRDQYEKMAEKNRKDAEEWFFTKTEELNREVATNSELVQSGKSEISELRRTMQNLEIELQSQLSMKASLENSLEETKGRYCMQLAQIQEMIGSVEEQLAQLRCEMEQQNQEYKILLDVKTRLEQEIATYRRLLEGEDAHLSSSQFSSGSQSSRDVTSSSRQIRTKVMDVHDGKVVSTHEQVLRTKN
Assay: co-IP; GFP-Trap Magnetic Agarose (25 μl beads) on 600 μg lysate of HeLa cells cotransfected with untagged K5 and the EGFP-tagged keratin; lysis in 10 mM Tris/Cl pH 7.5, 150 mM NaCl, 0.5 mM EDTA, 0.5% Nonidet P-40 Substitute (detergent-soluble pool); 4°C, 1 h; western blot for endogenous 14-3-3σ; 14-3-3σ signal normalized to GFP
Details: partners not purified

- fold 14-3-3σ in the immunoprecipitate (normalized to GFP) against the EGFP-K15 WT immunoprecipitate: > 2 fold
B1: 14-3-3σ (stratifin) (natural protein, human (endogenous in HeLa), UniProt P31947 1-248, looked up)
chain: MERASLIQKAKLAEQAERYEDMAAFMKGAVEKGEELSCEERNLLSVAYKNVVGGQRAAWRVLSSIEQKSNEEGSEEKGPEVREYREKVETELQGVCDTVLGLLDSHLIKEAGDAESRVFYLKMKGDYYRYLAEVATGDDKKRIIDSARSAYQEAMDISKKEMPPTNPIRLGLALNFSVFHYEIANSPEEAISLAKTTFDEAMADLHTLSEDSYKDSTLIMQLLRDNLTLWTADNAGEEGGEAPQEPQS
notes: 14-3-3σ / stratifin, endogenous in HeLa cells; also called stratifin/14-3-3σ; endogenous 14-3-3σ; source: endogenous, HeLa lysate; endogenous, fixed HeLa cells

— paper PMC12784932, “Keratin 15 promotes a progenitor cell state in basal keratinocytes of skin epidermis” (The Journal of Cell Biology, 2026)
